Source: the supplement of paper PMC9112550, “Optimization of the antimicrobial peptide Bac7 by deep mutational scanning” (BMC Biology, 2022)

Tested on: Escherichia coli TOP10
Test: shrunken log2 fold change of peptide-encoding DNA abundance (4.5 h post-induction vs induction); higher = less antimicrobial activity (less host growth inhibition)
Conditions: time post-induction: 4.5 h; library: site-saturation at positions 5, 18, 19, 20
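Also: peptides expressed intracellularly from a pBAD plasmid library in pooled LB shake-flask culture, induced with 0.3% L-arabinose, DNA abundance read by NGS, three biological replicates, DESeq2 with apeglm shrinkage.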

Sequence	shrunken log2 fold change
RRIRQRPPRLPRPRPRPSCRPRP	-0.28
RRIRQRPPRLPRPRPRPSCYPRP	-0.396
RRIRQRPPRLPRPRPRPSEKPRP	-0.018
RRIRQRPPRLPRPRPRPSGDPRP	-0.00374
RRIRQRPPRLPRPRPRPSGPPRP	-0.0826
RRIRQRPPRLPRPRPRPSGRPRP	0.137
RRIRQRPPRLPRPRPRPSGSPRP	-0.0833
RRIRQRPPRLPRPRPRPSHWPRP	-0.153
RRIRQRPPRLPRPRPRPSIGPRP	-0.268
RRIRQRPPRLPRPRPRPSIPPRP	-0.751
RRIRQRPPRLPRPRPRPSLKPRP	-0.235
RRIRQRPPRLPRPRPRPSLNPRP	-0.216
RRIRQRPPRLPRPRPRPSLPPRP	0.289
RRIRQRPPRLPRPRPRPSPAPRP	0.611
RRIRQRPPRLPRPRPRPSPDPRP	0.262
RRIRQRPPRLPRPRPRPSPWPRP	0.433
RRIRQRPPRLPRPRPRPSQQPRP	0.0129
RRIRQRPPRLPRPRPRPSQSPRP	-0.00144
RRIRQRPPRLPRPRPRPSQWPRP	-0.02
RRIRQRPPRLPRPRPRPSSEPRP	0.0507
RRIRQRPPRLPRPRPRPSSVPRP	0.00784
RRIRQRPPRLPRPRPRPSTHPRP	-0.465
RRIRQRPPRLPRPRPRPSWVPRP	-0.0385
RRIRQRPPRLPRPRPRPSYDPRP	-0.251
RRIRQRPPRLPRPRPRPSYVPRP	-1.04

Sequence	shrunken log2 fold change
RRIRQRPPRLPRPRPRPTACPRP	0.0488
RRIRQRPPRLPRPRPRPTAKPRP	0.151
RRIRQRPPRLPRPRPRPTARPRP	0.219
RRIRQRPPRLPRPRPRPTCCPRP	-0.00785
RRIRQRPPRLPRPRPRPTCKPRP	0.0706
RRIRQRPPRLPRPRPRPTFPPRP	-0.0691
RRIRQRPPRLPRPRPRPTFYPRP	-0.116
RRIRQRPPRLPRPRPRPTGKPRP	-0.00964
RRIRQRPPRLPRPRPRPTHCPRP	0.897
RRIRQRPPRLPRPRPRPTHLPRP	0.205
RRIRQRPPRLPRPRPRPTHSPRP	0.415
RRIRQRPPRLPRPRPRPTHTPRP	0.258
RRIRQRPPRLPRPRPRPTKQPRP	0.045
RRIRQRPPRLPRPRPRPTLHPRP	0.0326
RRIRQRPPRLPRPRPRPTPAPRP	0.953
RRIRQRPPRLPRPRPRPTPFPRP	0.296
RRIRQRPPRLPRPRPRPTQSPRP	0.375
RRIRQRPPRLPRPRPRPTQWPRP	0.571
RRIRQRPPRLPRPRPRPTRMPRP	0.185
RRIRQRPPRLPRPRPRPTRSPRP	0.164
RRIRQRPPRLPRPRPRPTSEPRP	0.015
RRIRQRPPRLPRPRPRPTTEPRP	0.26
RRIRQRPPRLPRPRPRPTTRPRP	0.215
RRIRQRPPRLPRPRPRPTVCPRP	0.0669
RRIRQRPPRLPRPRPRPTVEPRP	0.186

Sequence	shrunken log2 fold change
RRIRQRPPRLPRPRPRPTVLPRP	-0.0201
RRIRQRPPRLPRPRPRPTVVPRP	-0.00822
RRIRQRPPRLPRPRPRPTWHPRP	0.0897
RRIRQRPPRLPRPRPRPVATPRP	-0.00506
RRIRQRPPRLPRPRPRPVCVPRP	0.18
RRIRQRPPRLPRPRPRPVDHPRP	-0.335
RRIRQRPPRLPRPRPRPVDLPRP	-0.0892
RRIRQRPPRLPRPRPRPVELPRP	4.07e-05
RRIRQRPPRLPRPRPRPVFCPRP	0.0139
RRIRQRPPRLPRPRPRPVGAPRP	0.489
RRIRQRPPRLPRPRPRPVGMPRP	0.18
RRIRQRPPRLPRPRPRPVHFPRP	-0.00916
RRIRQRPPRLPRPRPRPVHIPRP	-0.1
RRIRQRPPRLPRPRPRPVIMPRP	-0.348
RRIRQRPPRLPRPRPRPVKYPRP	-0.067
RRIRQRPPRLPRPRPRPVLCPRP	-0.238
RRIRQRPPRLPRPRPRPVLGPRP	0.226
RRIRQRPPRLPRPRPRPVLIPRP	0.0422
RRIRQRPPRLPRPRPRPVLLPRP	-0.154
RRIRQRPPRLPRPRPRPVMQPRP	0.0499
RRIRQRPPRLPRPRPRPVNKPRP	0.112
RRIRQRPPRLPRPRPRPVNMPRP	0.0206
RRIRQRPPRLPRPRPRPVQLPRP	0.163
RRIRQRPPRLPRPRPRPVQQPRP	0.142
RRIRQRPPRLPRPRPRPVRSPRP	0.32

Sequence	shrunken log2 fold change
RRIRQRPPRLPRPRPRPVRYPRP	0.0926
RRIRQRPPRLPRPRPRPVWKPRP	0.121
RRIRQRPPRLPRPRPRPWHTPRP	-0.169
RRIRQRPPRLPRPRPRPWIHPRP	-0.103
RRIRQRPPRLPRPRPRPWISPRP	-0.0848
RRIRQRPPRLPRPRPRPWLHPRP	0.0098
RRIRQRPPRLPRPRPRPWLSPRP	0.0988
RRIRQRPPRLPRPRPRPWMDPRP	-0.118
RRIRQRPPRLPRPRPRPWPGPRP	0.116
RRIRQRPPRLPRPRPRPWPSPRP	0.168
RRIRQRPPRLPRPRPRPWREPRP	-0.0373
RRIRQRPPRLPRPRPRPWRNPRP	-0.00208
RRIRQRPPRLPRPRPRPWSAPRP	-0.277
RRIRQRPPRLPRPRPRPWTMPRP	0.0143
RRIRQRPPRLPRPRPRPWVRPRP	-0.112
RRIRQRPPRLPRPRPRPWVWPRP	0.0723
RRIRQRPPRLPRPRPRPWVYPRP	-0.264
RRIRQRPPRLPRPRPRPWWSPRP	0.0234
RRIRQRPPRLPRPRPRPWYCPRP	-1.83
RRIRQRPPRLPRPRPRPWYGPRP	-0.191
RRIRQRPPRLPRPRPRPYAPPRP	-0.505
RRIRQRPPRLPRPRPRPYAQPRP	-0.214
RRIRQRPPRLPRPRPRPYCHPRP	-0.0183
RRIRQRPPRLPRPRPRPYCIPRP	-0.0416
RRIRQRPPRLPRPRPRPYDAPRP	0.0382

Sequence	shrunken log2 fold change
RRIRQRPPRLPRPRPRPYDVPRP	-0.00663
RRIRQRPPRLPRPRPRPYFDPRP	-0.202
RRIRQRPPRLPRPRPRPYFYPRP	-0.652
RRIRQRPPRLPRPRPRPYIHPRP	-0.912
RRIRQRPPRLPRPRPRPYKKPRP	-0.0619
RRIRQRPPRLPRPRPRPYLEPRP	-0.332
RRIRQRPPRLPRPRPRPYMPPRP	-0.0463
RRIRQRPPRLPRPRPRPYNIPRP	-0.395
RRIRQRPPRLPRPRPRPYNMPRP	-0.316
RRIRQRPPRLPRPRPRPYQAPRP	-0.232
RRIRQRPPRLPRPRPRPYQDPRP	0.00682
RRIRQRPPRLPRPRPRPYQRPRP	-0.52
RRIRQRPPRLPRPRPRPYSMPRP	-0.031
RRIRQRPPRLPRPRPRPYTGPRP	-0.0162
RRIRQRPPRLPRPRPRPYTWPRP	-0.51
RRIRQRPPRLPRPRPRPYVEPRP	-0.537
RRIRRRPPRLPRPRPRPAAWPRP	0.0944
RRIRRRPPRLPRPRPRPACGPRP	0.429
RRIRRRPPRLPRPRPRPAHCPRP	0.804
RRIRRRPPRLPRPRPRPAIIPRP	-0.115
RRIRRRPPRLPRPRPRPAKIPRP	0.117
RRIRRRPPRLPRPRPRPAKKPRP	1.04
RRIRRRPPRLPRPRPRPALHPRP	0.651
RRIRRRPPRLPRPRPRPALSPRP	0.528
RRIRRRPPRLPRPRPRPANLPRP	0.0328

Sequence	shrunken log2 fold change
RRIRRRPPRLPRPRPRPANPPRP	0.364
RRIRRRPPRLPRPRPRPANQPRP	0.0564
RRIRRRPPRLPRPRPRPANRPRP	-0.0151
RRIRRRPPRLPRPRPRPAPSPRP	0.809
RRIRRRPPRLPRPRPRPASVPRP	0.267
RRIRRRPPRLPRPRPRPAVHPRP	0.321
RRIRRRPPRLPRPRPRPAVYPRP	0.0519
RRIRRRPPRLPRPRPRPAWNPRP	0.141
RRIRRRPPRLPRPRPRPAYKPRP	0.0139
RRIRRRPPRLPRPRPRPCACPRP	-0.0784
RRIRRRPPRLPRPRPRPCANPRP	-0.0911
RRIRRRPPRLPRPRPRPCARPRP	0.395
RRIRRRPPRLPRPRPRPCAVPRP	0.0527
RRIRRRPPRLPRPRPRPCCGPRP	0.0161
RRIRRRPPRLPRPRPRPCCSPRP	0.107
RRIRRRPPRLPRPRPRPCCWPRP	0.322
RRIRRRPPRLPRPRPRPCFWPRP	0.406
RRIRRRPPRLPRPRPRPCGEPRP	0.0238
RRIRRRPPRLPRPRPRPCGGPRP	0.686
RRIRRRPPRLPRPRPRPCGMPRP	0.114
RRIRRRPPRLPRPRPRPCHIPRP	-0.309
RRIRRRPPRLPRPRPRPCHYPRP	0.00952
RRIRRRPPRLPRPRPRPCIHPRP	-0.402
RRIRRRPPRLPRPRPRPCKDPRP	-0.0845
RRIRRRPPRLPRPRPRPCKQPRP	-0.0474
